Measured values reported in the supplement of paper PMC10126150.
± gives the standard deviation of the averaged measurements.

System: ATP
Assay: switch fluorescence ratio, 500 uM ATP over buffer (Cy3 cluster intensity, sum of 5 cycles each) (fold (ratio)); higher = stronger signal-on switching upon ATP binding; sequences stand for … in TCGTCGGCAGCGTCAGATGTGTATAAGAGACAGTTTTTTTTTTTTTTTTTTTTTTTTT…TC
Details: aptamer strand: ATP DNA aptamer (quencher-CACCTGGGGGAGTATTGCGGAGGAAGG + anchor), 100 nM annealed; ATP concentration: 500 uM
Method in brief: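 Per cluster, summed Cy3 intensity from the target cycles was divided by that from the buffer cycles to give the fluorescence ratio, then averaged per switch-domain sequence. Clusters outside 100-1000 RFU were excluded. The Cy3-labelled switching-strand clusters, on a modified Illumina MiSeq flow-cell, were annealed to 100 nM quencher-labelled ATP aptamer and imaged in selection buffer, then after 15 min with 500 uM ATP at 22 °C, for five cycles with NaOH stripping and re-annealing between them.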
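Note: ATP exposure 15 min at 22 °C before imaging.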

Sequence | switch fluorescence ratio
CGTGAGGGAG | 0.994 ± 0.029
CACTGTAACC | 1.19 ± 0.072
TTTGTTAAG | 1.02 ± 0.018
TTGGAATTGT | 1.005 ± 0.0075
TCTCGTTGGG | 1.012 ± 0.005
GAGGGAAAGG | 1.02 ± 0.052
TTAGGCGCAT | 1.03 ± 0.025
CGTGGGCAAG | 0.996 ± 0.021
AGTGGCAGTG | 1 ± 0.022
TCAATTTCAC | 1.9 ± 1.3
TGGGTTGTTA | 0.9852 ± 0.0095
CGGAAAAAGT | 0.97 ± 0.013
TTTTTGAGCA | 1.05 ± 0.049
GGGGGGTCGC | 0.99 ± 0.041
TCGCGAAATT | 0.9763 ± 0.0042
TTTCGGGGAC | 1.43 ± 0.62
GGTCTTAGAA | 1.033 ± 0.0062
TATTAAAAGA | 0.99 ± 0.03
TTAAGAGATA | 0.989 ± 0.018
TGGCGCTTTT | 0.9976 ± 0.0079
TGATTTTGGA | 0.974 ± 0.012
ATCCTACAGC | 1.1 ± 0.025
GGGTAAGGGC | 1.01 ± 0.031
CCTCGGGGGT | 1.02 ± 0.04
TAATGTTTTG | 1.01 ± 0.018
TGCATGTGGC | 0.988 ± 0.012

Sequence | switch fluorescence ratio
GGTTTTTGCT | 0.9584 ± 0.0068
TGCTTTAAAC | 0.995 ± 0.032
CGTGGTTGCG | 0.962 ± 0.055
AGGAGTTGGA | 0.987 ± 0.013
TTGGAGGCTC | 1.03 ± 0.024
AAGGTAGCTT | 1.011 ± 0.0094
GCTGCAAGGG | 1.07 ± 0.063
ATTTGGTGTA | 0.968 ± 0.0098
TTCTGACGGT | 1.12 ± 0.037
CACTGTGAAT | 1.009 ± 0.0024
GCATTAAGGA | 1.058 ± 0.008
TTTTTCGGCC | 0.979 ± 0.026
TCGGGGCCAA | 0.991 ± 0.019
TTTTAACCGG | 0.974 ± 0.025
TTGGTTCAGC | 1.05 ± 0.028
CTGGTAAAGA | 0.984 ± 0.015
GTCGGCGGGG | 0.98048 ± 0.0006
GCAAGGAGGA | 0.996 ± 0.014
TTCATCGGGG | 0.979 ± 0.028
CTGTTTGGGT | 0.9759 ± 0.0026
TGCTAGCCTC | 0.9724 ± 0.004
GATAATTGGG | 0.9992 ± 0.0079
CGGGGTATAG | 1.37 ± 0.52
TTTTTCCGAG | 1.08 ± 0.025
CGTGGGGGGA | 1.03 ± 0.013
GGCGCAGCAA | 1.47 ± 0.091

Sequence | switch fluorescence ratio
ACTTTGTCGG | 0.995 ± 0.038
CGGAAAAATC | 1.53 ± 0.76
GTTGGACAGA | 1.03 ± 0.015
GTGTGCTGTG | 1.01 ± 0.063
TTTTTTTCTT | 0.994 ± 0.024
CAGCGGGGGA | 1.012 ± 0.0014
TGAGGCCCCG | 0.991 ± 0.025
AGTATATTGG | 0.99 ± 0.044
AGATTGGATA | 1.01 ± 0.036
GTAAATTTGA | 1.03 ± 0.068
AGCTGTGATG | 1.01 ± 0.058
TTTTTACAGT | 1.02 ± 0.048
CTGGTAATTT | 1.02 ± 0.079
AGATGAGGTG | 1.01 ± 0.019
TGCTGGGGTG | 1.04 ± 0.1
AGTTGCCGCG | 0.996 ± 0.012
GATCATCAGG | 1 ± 0.012
GGTTGCGTCT | 0.9613 ± 0.003
TGGTCTTCTC | 1.16 ± 0.26
AGGGCCGTAT | 1.04 ± 0.056
CGTAATTATG | 1.01 ± 0.03
GGTGGTCCCT | 0.99 ± 0.04
TTTGCTAAA | 1.01 ± 0.046
CAGCGTATTT | 1.03 ± 0.036
GGTTTGTGTG | 0.991 ± 0.018
TGCTATACTT | 1.46 ± 0.15

Sequence | switch fluorescence ratio
CATCGTAAAT | 1.06 ± 0.016
TTGTATAAGG | 1 ± 0.015
TGGACTTGGA | 0.9869 ± 0.0031
GATGGAGTTT | 1.03 ± 0.011
GCGGAGAAAT | 1.4 ± 0.3
GCGGATGCGT | 1.03 ± 0.048
GGTGAAAAGC | 1.02 ± 0.059
CGGATGGCCT | 1.03 ± 0.019
CTTTGGAGGT | 0.985 ± 0.016
GGAAAAAATG | 1 ± 0.048
TTGGTTGGAA | 1 ± 0.072
GTGTTAACTG | 0.984 ± 0.028
ACGTGTACGG | 1.03 ± 0.022
TGAAAGTCTC | 1.003 ± 0.0057
GGATGGCTTC | 0.9987 ± 0.0023
ATTGGGTGTG | 0.987 ± 0.027
AGTTGAGCAA | 1.29 ± 0.048
CTAGTGGGTT | 0.973 ± 0.02
GGTACCAGTT | 1.01 ± 0.012
TTTGAGTATA | 0.992 ± 0.031
ATCGTGTG | 1.01 ± 0.038
TAATCCTGTA | 0.9994 ± 0.003
GAGCATATTG | 1.03 ± 0.03
ACATGAGGTG | 1.18 ± 0.064
GGGCCTGGTG | 1.42 ± 0.013
GCGTAGGTGT | 1.09 ± 0.033

Sequence | switch fluorescence ratio
GGTGATCTTT | 0.965 ± 0.044
AGCGGTTAAT | 0.984 ± 0.019
TTCACTGGGC | 1.01 ± 0.0013
ATATGAATGA | 1.01 ± 0.015
TGATAAGGGG | 1.01 ± 0.039
GATTAATGTT | 1 ± 0.022
TCAAAAAAAT | 1.02 ± 0.091
TTGGTTATTT | 1 ± 0.045
AGTAGGGGGC | 1 ± 0.035
TGAGTAAGGT | 0.995 ± 0.04
GACATTAGTC | 0.99 ± 0.011
CGTAGCGGTA | 1.53 ± 0.098
CGTATCGTGG | 1.03 ± 0.031
TTTAGATTCT | 0.992 ± 0.032
TTGTTGGGAA | 0.998 ± 0.032
GCTATACGAT | 2.17 ± 0.18
TCAAACATTT | 1.016 ± 0.0076
TGGGCGGGA | 1 ± 0.03
AAGAAATTAA | 1.01 ± 0.045
ATTAGGTAAT | 0.999 ± 0.011
CTTTTAGAGA | 1.02 ± 0.015
TAAGCTCGTG | 0.97 ± 0.019
TACACATTTT | 1.07 ± 0.026
GGGATAGGGC | 1.04 ± 0.054
GGGTCTAGAG | 1.0295 ± 0.00078
CCCGGGTCGC | 1.05 ± 0.012

Sequence | switch fluorescence ratio
TAGTGCGCGC | 1.03 ± 0.025
ATTCCAAGGA | 0.9853 ± 0.0019
TCTCATTGGG | 0.9875 ± 0.004
CCTGTACGGA | 1.004 ± 0.0067
CGGTTCGGGC | 0.983 ± 0.023
GAGTAAAAAG | 0.99 ± 0.014
CGGATTGAAT | 1 ± 0.072
CCTGGGAGCA | 1.08 ± 0.057
TTATAAAGGA | 1.05 ± 0.046
TGCTCGGATG | 0.993 ± 0.03
AAAATGTGTT | 1.01 ± 0.018
TTTGAGCTTG | 0.981 ± 0.017
TGCATTAGAG | 1.02 ± 0.034
TATGAGGATT | 0.9749 ± 0.0023
AAGGGCATTT | 1.04 ± 0.028
TTTGTTTTTT | 0.994 ± 0.03
TCATTTGATA | 1.03 ± 0.035
AGATGGTCTG | 1.01 ± 0.032
GGGATCGTAT | 0.9856 ± 0.0054
GTTTTTTCTT | 0.971 ± 0.051
AAATTGTTTT | 1.01 ± 0.019
GAAGTGTGGC | 1.08 ± 0.031
TTCAGGAGTG | 0.993 ± 0.067
